The nature of this data set: total protein half-life in vivo (active degradation + dilution); higher = more stable protein.
[1] abbreviates: E. coli NCM3722 delta-lon, growth: N-lim chemostat, doubling time 6 h.
Where [2] appears, read: E. coli NCM3722 delta-clpP delta-lon delta-hslV, growth: N-lim chemostat, doubling time 6 h.
The mark [3] stands for this setting: E. coli NCM3722 delta-clpP, growth: N-lim chemostat, doubling time 6 h.
Where [4] appears, read: E. coli NCM3722 delta-smpB, growth: N-lim chemostat, doubling time 6 h.
Setting [5] is: wild type E. coli NCM3722, growth: C-lim chemostat, doubling time 3 h.
[6] abbreviates: wild type E. coli NCM3722, growth: C-lim chemostat, doubling time 6 h.
Setting [7] is: wild type E. coli NCM3722, growth: C-lim chemostat, doubling time 12 h.
[8] abbreviates: wild type E. coli NCM3722, growth: N-lim chemostat, doubling time 6 h.
Setting [9] is: wild type E. coli NCM3722, growth: N-lim chemostat, doubling time 12 h.
[10] abbreviates: wild type E. coli NCM3722, growth: P-lim chemostat, doubling time 6 h.
The mark [11] stands for this setting: wild type E. coli NCM3722, growth: P-lim chemostat, doubling time 12 h.
Setting [12] is: E. coli NCM3722 delta-hslV, growth: N-lim chemostat, doubling time 6 h.

± gives the standard deviation of the averaged measurements.

The source of these data is the supplement of paper PMC11246515.

“MRKTVAFGFVGTVLDYAGRGSQRWSKWRPTLCLCQQESLVIDRLELLHDARSRSLFETLKRDIASVSPETEVVSVEIELHNPWDFEEVYACLHDFARGYEFQPEKEDYLIHITTGTHVAQICWFLLAEARYLPARLIQSSPPRKKEQPRGPGEVTIIDLDLSRYNAIASRFAEERQQTLDFLKSGIATRNPHFNRMIEQIEKVAIKSRAPILLNGPTGAGKSFLARRILELKQARHQFSGAFVEVNCATLRGDTAMSTLFGHVKGAFTGARESREGLLRSANGGMLFLDEIGELGADEQAMLLKAIEEKTFYPFGSDRQVSSDFQLIAGTVRDLRQLVAEGKFREDLYARINLWTFTLPGLRQRQEDIEPNLDYEVERHASLTGDSVRFNTEARRAWLAFATSPQATWRGNFRELSASVTRMATFATSGRITLDVVEDEINRLRYNWQESRPSALTALLGAEAENIDLFDRMQLEHVIAICRQAKSLSAAGRQLFDVSRQGKASVNDADRLRKYLARFGLTWEAVQDQHSSS”: under setting [1], the “total protein half-life in vivo” value was 4.02 h.
As for “MLYGFSGVILQGALVTLELAISSVVLAVIIGLIGAGGKLSQNRLSGLIFEGYTTLIRGVPDLVLMLLIFYGLQIALNTVTEAMGVGQIDIDPMVAGIITLGFIYGAYFTETFRGAFMAVPKGHIEAATAFGFTRGQVFRRIMFPSMMRYALPGIGNNWQVILKSTALVSLLGLEDVVKATQLAGKSTWEPFYFAIVCGVIYLVFTTVSNGVLLFLERRYSVGVKRADL”, the “total protein half-life in vivo” value amounted to 5.69 ± 0.1 h under setting [2]; 6.04 ± 0.29 h under setting [3]; 6.66 ± 0.46 h under setting [1]; 5.85 ± 0.34 h under setting [4]; 3.09 ± 0.16 h under setting [5]; 5.6235 ± 0.0025 h under setting [6]. Besides, the “total protein half-life in vivo” value by setting is: under setting [7], 11.5 ± 2.1 h; under setting [8], 6.17 ± 0.47 h; under setting [9], 12.8 ± 2.3 h; under setting [10], 5.65 ± 0.36 h; under setting [11], 11.2 ± 2.3 h.
In the case of “MIVISRHVAIPDGELEITAIRAQGAGGQHVNKTSTAIHLRFDIRASSLPEYYKERLLAASHHLISSDGVIVIKAQEYRSQELNREAALARLVAMIKELTTEKKARRPTRPTRASKERRLASKAQKSSVKAMRGKVRSGRE”, the “total protein half-life in vivo” value under setting [3] came out at 3.47 h; the “total protein half-life in vivo” value under setting [12] stood at 4.86 h; the “total protein half-life in vivo” value under setting [1] came to 5 ± 0.37 h; the “total protein half-life in vivo” value under setting [4] is 4.58 h; the “total protein half-life in vivo” value under setting [5] was determined as 2.4 h; the “total protein half-life in vivo” value under setting [6] was determined as 4.63 h. Further, the “total protein half-life in vivo” value came out at 6.61 h under setting [7], 4.19 h under setting [8], 8.89 h under setting [9] and 4.91 h under setting [10].
Regarding “MKQKVVSIGDINVANDLPFVLFGGMNVLESRDLAMRICEHYVTVTQKLGIPYVFKASFDKANRSSIHSYRGPGLEEGMKIFQELKQTFGVKIITDVHEPSQAQPVADVVDVIQLPAFLARQTDLVEAMAKTGAVINVKKPQFVSPGQMGNIVDKFKEGGNEKVILCDRGANFGYDNLVVDMLGFSIMKKVSGNSPVIFDVTHALQCRDPFGAASGGRRAQVAELARAGMAVGLAGLFIEAHPDPEHAKCDGPSALPLAKLEPFLKQMKAIDDLVKGFEELDTSK [P0A715]”, the “total protein half-life in vivo” value was found to be 6.1 ± 0.77 h under setting [2]; 5.88 ± 1.5 h under setting [3]; 5.22 ± 0.14 h under setting [12]; 6.19 ± 0.93 h under setting [1]; 4.85 ± 0.15 h under setting [4]; 3.15 ± 0.56 h under setting [5]. Also, the “total protein half-life in vivo” value is, setting by setting: under setting [6], 6.05 ± 0.51 h; under setting [7], 10.3 ± 1.2 h; under setting [8], 5.01 ± 0.13 h; under setting [9], 9.03 ± 0.37 h; under setting [10], 5.58 ± 0.48 h; under setting [11], 12.9 ± 1.5 h.
Turning to P76578, the “total protein half-life in vivo” value is, setting by setting: under setting [2], 6.589 ± 0.03 h; under setting [12], 6.54 ± 0.12 h; under setting [1], 6.81 ± 0.67 h; under setting [4], 6.09 ± 0.11 h; under setting [5], 3.08 ± 0.13 h; under setting [6], 6.17 ± 0.39 h. Further, the “total protein half-life in vivo” value by setting is: under setting [7], 13.4 ± 0.82 h; under setting [8], 6.17 ± 0.06 h; under setting [9], 13.1 ± 0.32 h; under setting [10], 6.16 ± 0.085 h; under setting [11], 12.7 ± 0.14 h.
With “MTTPLKKIVIVGGGAGGLEMATQLGHKLGRKKKAKITLVDRNHSHLWKPLLHEVATGSLDEGVDALSYLAHARNHGFQFQLGSVIDIDREAKTITIAELRDEKGELLVPERKIAYDTLVMALGSTSNDFNTPGVKENCIFLDNPHQARRFHQEMLNLFLKYSANLGANGKVNIAIVGGGATGVELSAELHNAVKQLHSYGYKGLTNEALNVTLVEAGERILPALPPRISAAAHNELTKLGVRVLTQTMVTSADEGGLHTKDGEYIEADLMVWAAGIKAPDFLKDIGGLETNRINQLVVEPTLQTTRDPDIYAIGDCASCPRPEGGFVPPRAQAAHQMATCAMNNILAQMNGKPLKNYQYKDHGSLVSLSNFSTVGSLMGNLTRGSMMIEGRIARFVYISLYRMHQIALHGYFKTGLMMLVGSINRVIRPRLKLH”, the “total protein half-life in vivo” value runs as follows: under setting [2], 6.51 ± 0.53 h; under setting [3], 6.87 ± 1.2 h; under setting [12], 6.08 ± 0.085 h; under setting [1], 6.332 ± 0.062 h; under setting [4], 5.82 ± 0.36 h; under setting [5], 3.15 ± 0.057 h. The “total protein half-life in vivo” value is, setting by setting: under setting [7], 11.78 ± 0.097 h; under setting [8], 6.12 ± 0.28 h; under setting [9], 12.7 ± 0.44 h; under setting [10], 6.07 ± 0.096 h; under setting [11], 14.2 ± 0.38 h.
For “MPDAVQAPYPAYRPEPNMQTITIAPPKRSWFSLLSWAVVLAVLVVSWQGAEMAPLTLIKDGGNMATFAADFFPPDFSQWQDYLTEMAVTLQIAVWGTALAVVLSIPFGLMSAENLVPWWVYQPVRRLMDACRAINEMVFAMLFVVAVGLGPFAGVLACWRCLSTPPACSPSCFPKRWKRLSPARWKAFAPPVPTSSKRSSTACCHR [P0DP69]”, the “total protein half-life in vivo” value under setting [10] came to 0.274 ± 0.32 h and the “total protein half-life in vivo” value under setting [11] turned out to be 0.661 ± 0.64 h.
In the case of “MTWFIDRRLNGKNKSMVNRQRFLRRYKAQIKQSISEAINKRSVTDVDSGESVSIPTEDISEPMFHQGRGGLRHRVHPGNDHFVQNDRIERPQGGGGGSGSGQGQASQDGEGQDEFVFQISKDEYLDLLFEDLALPNLKQNQQRQLTEYKTHRAGYTANGVPANISVVRSLQNSLARRTAMTAGKRRELHALEENLAIISNSEPAQLLEEERLRKEIAELRAKIERVPFIDTFDLRYKNYEKRPDPSSQAVMFCLMDVSGSMDQSTKDMAKRFYILLYLFLSRTYKNVEVVYIRHHTQAKEVDEHEFFYSQETGGTIVSSALKLMDEVVKERYNPAQWNIYAAQASDGDNWADDSPLCHEILAKKLLPVVRYYSYIEITRRAHQTLWREYEHLQSTFDNFAMQHIRDQDDIYPVFRELFHKQNATAKG”, the “total protein half-life in vivo” value runs as follows: under setting [2], 2.93 ± 0.22 h; under setting [3], 2.2 ± 0.052 h; under setting [12], 1.52 ± 0.018 h; under setting [1], 1.525 ± 0.004 h; under setting [4], 1.49 ± 0.047 h; under setting [5], 1.37 ± 0.082 h. The “total protein half-life in vivo” value reads like this: under setting [6], 1.6 ± 0.063 h; under setting [7], 1.95 ± 0.46 h; under setting [8], 1.47 ± 0.039 h; under setting [9], 1.64 ± 0.027 h; under setting [10], 1.98 ± 0.3 h; under setting [11], 3.11 ± 0.88 h.
